Patent US20250011363A1, “OPTIMIZED SHORTENED PEPTIDE THAT BINDS TO ACETYLCHOLINE RECEPTOR, AND USE THEREOF” (SKINMED CO., LTD., priority 2021, published 2025)

molecular target: acetylcholine receptor (Homo sapiens, UniProt P02708); assay: SPR binding affinity (RU) of optimized 5mer/6mer/7mer peptides, Examples 6-7; details: 6mer-1 Top sequence; SPR; peptides tested at 10 μM
Method in brief: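 Peptides were tested at 10 μM by surface plasmon resonance against the receptor, with binding reported as response units. Library sequences were built from frequent (top) or infrequent (bottom) amino acid combinations in 5mer, 6mer-1 and 6mer-2 series.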

Sequence of acetylcholine receptor (P02708 21-457): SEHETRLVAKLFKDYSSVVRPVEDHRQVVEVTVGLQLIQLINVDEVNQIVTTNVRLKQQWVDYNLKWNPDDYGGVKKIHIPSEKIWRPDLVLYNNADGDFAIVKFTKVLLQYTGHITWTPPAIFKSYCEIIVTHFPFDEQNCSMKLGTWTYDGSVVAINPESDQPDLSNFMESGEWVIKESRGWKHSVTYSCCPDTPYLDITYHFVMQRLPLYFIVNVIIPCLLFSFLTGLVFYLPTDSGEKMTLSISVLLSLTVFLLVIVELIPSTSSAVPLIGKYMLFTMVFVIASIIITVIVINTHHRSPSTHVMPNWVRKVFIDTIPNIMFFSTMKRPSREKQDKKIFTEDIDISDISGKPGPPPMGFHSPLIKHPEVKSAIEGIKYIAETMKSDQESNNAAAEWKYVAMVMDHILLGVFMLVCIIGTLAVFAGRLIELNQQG

Substance | Binding affinity [Ru]
6mer-1-263 (RKSYTK) | 146
6mer-1-328 (KRWLQK) | 151
6mer-1-395 (KKRQTK) | 125
6mer-1-205 (KRWRLR) | 133
6mer-1-208 (KRSIQR) | 122
6mer-1-357 (KRRQTR) | 148

same assay, conditions: 6mer-2 Top sequence; SPR; peptides tested at 10 μM

Substance | Binding affinity [Ru]
6mer-2-94 (RLYQRK) | 126
6mer-2-5 (RWVSKR) | 124
6mer-2-42 (KLLSKR) | 126
6mer-2-93 (RWQTRR) | 133
6mer-2-200 (RGVQRK) | 121
6mer-2-197 (RGQYRR) | 126
6mer-2-45 (RSLTKK) | 121

same assay, conditions: SPR, Resonance Units; 5mer Bottom sequence (bottom combinations); peptides tested at 10 μM

Substance | Binding affinity [Ru]
5mer-1016 (KYTMR) | 28
5mer-632 (RFSHR) | 33
5mer-733 (KTCDR) | 23
5mer-1072 (KDWPK) | 32
5mer-790 (REAGK) | 33
5mer-1089 (KTHHR) | 29
5mer-734 (KATER) | 16
5mer-739 (KDCPR) | 16
5mer-1102 (KTHKK) | 20
5mer-1062 (RAPWR) | 24
5mer-749 (KHTWR) | 24
5mer-759 (KHKMR) | 17
5mer-1084 (RTHDR) | 21
5mer-988 (RCKWR) | 17

same assay, conditions: SPR, Resonance Units; peptides tested at 10 μM; 6mer-1 Bottom sequence

Substance | Binding affinity [Ru]
6mer-1-1069 (KKIWAR) | 23
6mer-1-1080 (KKHNMR) | 38
6mer-1-1162 (KKCDHR) | 41
6mer-1-1054 (RRMKVK) | 37
6mer-1-1185 (KKEMMK) | 29
6mer-1-1044 (KKHHIR) | 24
6mer-1-1098 (RKKDMR) | 42
6mer-1-1020 (KKMEAK) | 38
6mer-1-1146 (KKMMPK) | 34
6mer-1-1105 (RRCTAR) | 40
6mer-1-1151 (KKKEAK) | 34
6mer-1-1087 (KKPWKR) | 27
6mer-1-1074 (KRTCGR) | 24
6mer-1-1091 (KKDDGK) | 32

same assay, conditions: SPR, Resonance Units; peptides tested at 10 μM; 6mer-1 Bottom sequence (Table 11)

Substance | Binding affinity [Ru]
6mer-1-770 (RKTNAR) | 29
6mer-1-660 (KKYHVK) | 31
6mer-1-647 (RKYNVR) | 14
6mer-1-694 (RKYTKR) | 27
6mer-1-748 (RKHNGR) | 24
6mer-1-782 (KKNAWK) | 30

same assay, conditions: SPR, Resonance Units; peptides tested at 10 μM; 6mer-2 Bottom sequence

Substance | Binding affinity [Ru]
6mer-2-617 (RCNGRR) | 32
6mer-2-892 (KDENRK) | 27
6mer-2-912 (RAPIRR) | 27
6mer-2-974 (RFDDRR) | 38
6mer-2-871 (REMPKR) | 31
6mer-2-941 (RDEDKR) | 33
6mer-2-700 (RPWHKK) | 15
6mer-2-795 (RTHNKR) | 16
6mer-2-697 (KCAVKK) | 19
6mer-2-749 (KMWKRK) | 20
6mer-2-665 (KCAERR) | 18

same assay, conditions: SPR, Resonance Units; peptides tested at 10 μM; 6mer-2 Top sequence

Substance | Binding affinity [Ru]
6mer-2-450 (RQRYRK) | 123
6mer-2-569 (RWQLRK) | 135
6mer-2-510 (KRVLKK) | 146
6mer-2-561 (RRVLKK) | 142
6mer-2-425 (KLQTKK) | 145
6mer-2-558 (KSVCKK) | 154
6mer-2-464 (KSFRKK) | 135
6mer-2-504 (RGLTRK) | 154
6mer-2-454 (RSVQKK) | 133
6mer-2-488 (KVYRRK) | 146
6mer-2-419 (RSRYKK) | 154

same assay, conditions: SPR, Resonance Units; peptides tested at 10 μM; 6mer-2 Top sequence (Table 12)

Substance | Binding affinity [Ru]
6mer-2-269 (KWVQRK) | 123
6mer-2-357 (RGQRKK) | 151
6mer-2-283 (KLISKR) | 148
6mer-2-208 (RSQQRK) | 128
6mer-2-292 (RQLCKR) | 121
6mer-2-296 (KWYRRK) | 135
6mer-2-324 (KLQSRK) | 139
6mer-2-231 (KGISKK) | 144

same assay, conditions: SPR, peptides at 10 μM; 6mer-2 Bottom sequence

Substance | Binding affinity [Ru]
6mer-2-1083 (KTKGKR) | 39
6mer-2-1002 (RCNDKR) | 42
6mer-2-1162 (KMSERR) | 34
6mer-2-1141 (KCTGKR) | 32
6mer-2-1035 (RPPVKK) | 39
6mer-2-1059 (RFADRR) | 35
6mer-2-1081 (KYKMRR) | 32
6mer-2-1165 (RIKAKK) | 30
6mer-2-1115 (KYSPRK) | 39

same assay, conditions: SPR, peptides tested at 10 μM; 5mer Top sequence

Substance | Binding affinity [Ru]
5mer-506 (RGRLR) | 51
5mer-95 (RGRRK) | 68
5mer-131 (KLRRR) | 72
5mer-56 (KRFCK) | 59
5mer-407 (RQIYK) | 58
5mer-427 (RGLYR) | 87
5mer-76 (RGYRR) | 80
5mer-150 (RVRTR) | 64
5mer-385 (RGVYR) | 51
5mer-496 (KGIQK) | 81
5mer-359 (KRFQK) | 79
5mer-111 (KSVLK) | 85
5mer-184 (KLQCR) | 68
5mer-88 (RRVQK) | 73
5mer-309 (KVQYR) | 70
5mer-109 (RLQCR) | 68
5mer-413 (RWLTR) | 56
5mer-182 (RVLSK) | 70

same assay, conditions: SPR, peptides tested at 10 μM; 5mer Top sequence (top combinations)

Substance | Binding affinity [Ru]
5mer-530 (RWRRR) | 80
5mer-215 (RQYRR) | 79
5mer-296 (KWISK) | 55
5mer-283 (KWVYK) | 51
5mer-526 (KQFSR) | 54
5mer-238 (KQVLK) | 58
5mer-516 (KWQTR) | 83
5mer-515 (RGQRK) | 56
5mer-281 (RGFLK) | 58
5mer-260 (KVYRR) | 57
5mer-589 (KGLCR) | 58

same assay, conditions: SPR, peptides tested at 10 μM; 6mer-1 Bottom sequence (Table 11)

Substance | Binding affinity [Ru]
6mer-1-897 (RRPSIK) | 24
6mer-1-950 (RKEDKR) | 29
6mer-1-845 (KKIDKK) | 23
6mer-1-988 (KRYPDR) | 24
6mer-1-928 (KRYCPK) | 30
6mer-1-919 (RKDHIK) | 26
6mer-1-849 (KKFNWK) | 21
6mer-1-948 (RKFTVR) | 24
6mer-1-990 (RRFTER) | 40
6mer-1-819 (KRMHAK) | 17
6mer-1-972 (RRHTHK) | 43
6mer-1-818 (RKIKAR) | 14
6mer-1-938 (KKIAWK) | 28
6mer-1-808 (RRFEKK) | 24

same assay, conditions: SPR, peptides tested at 10 μM; 6mer-1 Top sequence

Substance | Binding affinity [Ru]
6mer-1-578 (RKGQYK) | 139
6mer-1-481 (KRWRCK) | 133
6mer-1-537 (RRGLCK) | 154
6mer-1-479 (RRSLTR) | 135

same assay, conditions: SPR, peptides tested at 10 μM; 6mer-1 Top sequence (top combinations)

Substance | Binding affinity [Ru]
6mer-1-187 (RKLFYK) | 139
6mer-1-95 (KKWQTK) | 142
6mer-1-17 (KRVQCR) | 135
6mer-1-123 (RRGVQK) | 148
6mer-1-133 (RKRFLR) | 154
6mer-1-10 (KRWRLK) | 139
6mer-1-53 (KRVIQR) | 123
6mer-1-46 (KRLYQR) | 142
6mer-1-57 (RKQYYK) | 139
6mer-1-65 (KKSRRR) | 121

same assay, conditions: SPR; XRRGVRR-7mer and RRGVRRX-7mer

Substance | Binding affinity, values relative to the RRGVRR sequence
3663 (RRGVRRV) [compound 3663] | 149
3666 (RRGVRRL) [compound 3666] | 146

same assay, conditions: SPR; XRRQRR-6mer and RRQRRX-6mer

Substance | Binding affinity, relative value to the RRQRR sequence
3640 (RRQRRE) [compound 3640] | 37
3623 (RRQRRV) [compound 3623] | 120

same assay, conditions: SPR; peptides tested at 10 μM; 5mer Bottom sequence

Substance | Binding affinity [Ru]
5mer-853 (RYHIK) | 13
5mer-840 (KDTAR) | 11
5mer-1138 (RENHK) | 24
